The text below walks through data of patent US20080213265A1 (INSTITUTE FOR RESEARCH IN BIOMEDICINE, published 2008).

The target of test [1] is UL130/UL131A of a clinical hCMV isolate (virus used in the neutralisation assay) (human cytomegalovirus (hCMV), UniProt P16772 26-214). Put plainly: cell-based or functional assay.
Test [2] addresses T1, HA-tagged UL128Δ1-27 hCMV protein expressed in HEK293T cells (human cytomegalovirus (hCMV), UniProt P16837 28-171).
T1 construct: mature; not shown: hemagglutinin (HA) tag
T1 sequence: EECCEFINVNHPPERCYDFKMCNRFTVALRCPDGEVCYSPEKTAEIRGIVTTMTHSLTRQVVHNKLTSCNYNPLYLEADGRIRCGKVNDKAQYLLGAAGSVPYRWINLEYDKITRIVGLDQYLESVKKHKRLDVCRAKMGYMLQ
The test can be described thus: FACS staining of fixed, permeabilized transfected HEK293T cells.

The target of test [3] is T2, HA-tagged UL130Δ1-25 hCMV protein expressed alone in HEK293T cells (human cytomegalovirus (hCMV), UniProt P16772 26-214).
T2 construct: mature; not shown: hemagglutinin (HA) tag
Described as above.

Bounds are passed on as bounds.

B1: human monoclonal antibody 2F4 (antibody, V domains shown)
VH: QVQLVESGGGVVQPGRSLRLSCAASGFSFNTYGMHWVRQAPGKGLEWVAVIWDDGSKMYHADSVKGRFTISRDNSKNTLYLQMNSLRAEDTAVYYCARDEGAIMLHAMTDYGLDVWGQGTTVTV
VL: SYELTQPPSVSVSPGQTATITCSGDNLGDEFACWYQQKPGQSPVLVIYQDSKRPSGIPERFSGSSSGNTATLTIRGTQAMDEADYYCQAWDSSTAHYVFGTGTKVTVL
notes: Human IgG from an immortalised B cell clone
Consider B1, for which, in test [1], the “50% neutralisation (µg/ml), Endothelial cells” value was determined as 0.003 µg/mL and the “50% neutralisation (µg/ml), Fibroblasts” value was over 2 µg/mL. In addition, the binding result in test [2] is “no binding”. Also, the binding result in test [3] is “no binding”.

B2: human monoclonal antibody 5A2 (antibody, V domains shown)
VH: QVQLVQSGAEVRKPGSSVKVSCKASGGTFSSYVIHWVRQAPGQGLEWMGGIIPIFNTANYAQKVQGRVTITADESTSTAYMELSSLRSEDTAIYYCARDFLSGPMEMPGGYYGLDVWGQGTTVTVSS
VL: not shown
notes: as for B1
Take B2: in test [1], the “50% neutralisation (µg/ml), Endothelial cells” value came to 0.002 µg/mL. Further, in test [1], the “50% neutralisation (µg/ml), Fibroblasts” value is over 2 µg/mL. Also, the binding result in test [2] and in test [3] was “no binding” throughout.

B3: human monoclonal antibody 1F11 (antibody, V domains shown)
VH: QVQLVESGGGVVQPGRSVRLSCVASGFTFSSYAMHWVRQAPGKGLEWVSLISFDGDNKYYADSVRGRFTISRDSSQKTLFLQMNSLRVEDTAIYYCAREELVGLMPPYYNYGLDVWGQGTTVTVSS
VL: QSVLTQPPSVSAAPGQKVTISCSGSSSNIGNNFVSWYQQLPGTAPKLLIYDNDRRPSGIPDRFSGSKSDTSATLVITGLQTGDEADYYCETWDGSLNPAVVFGGGTRLTVL
notes: Human IgG from an EBV-immortalised B cell clone
For the molecule B3, the “50% neutralisation (µg/ml), Endothelial cells” value in test [1] is 0.001 µg/mL. In addition, the “50% neutralisation (µg/ml), Fibroblasts” value in test [1] was over 2 µg/mL. Also, the binding result in test [2] and in test [3] was “no binding” each time.
